Laboratory results reported in US20240417477A1 (B G NEGEV TECHNOLOGIES AND APPLICATIONS LTD AT BEN GURION …, published 2024).

Legend:
[1] = target: T1, human PD-1 receptor overexpressed on Bw-PD-1 reporter cells (fusion of PD-1 with a zeta chain) (human, UniProt Q15116 25-288); experiment: cell-based or functional assay
[2] = target: T2, AXL expressed on HNSCC tumor cells (SCC47, SNU1076, FaDu) (human, UniProt P30530 26-894); experiment: cell-based or functional assay
[3] = target: T3, human Axl recombinant protein (ACROBiosystems) (human, UniProt P30530 26-449, limits assumed); experiment: SPR (Biorad ProteOn XPR36), antibody immobilised, recombinant AXL as analyte 3.125-50 nM
T3 construct: Coated on ELISA plates; analyte in SPR; also called recombinant AXL; human AXL protein
Text: (§1) All four constructs were purified using Ni-NTA resins and diluted to different concentrations prior to ELISA binding analysis. […] To further determine the dissociation constant (KD value) of the mono specific and bi-specific antibodies to their respective targets, the surface plasmon resonance (SPR) method was utilized (using Biorad ProteOn XPR36). The different antibodies were immobilized in independent channels on a SPR sensor prism (ProteOn XPR36 compatible chip), as ligands. […] Based on the association and dissociation interaction between each of the recombinant proteins and the respective antibodies, respective KD values were calculated.

[4] = target: T4, human PD-1 recombinant protein (ACROBiosystems) (human, UniProt Q15116 25-167, biotinylated (in the ELISA, captured on streptavidin)); experiment: SPR (Biorad ProteOn XPR36), antibody immobilised, recombinant PD-1 as analyte 3.125-50 nM
T4 construct: Analyte in SPR; also called recombinant PD-1; human PD-1 protein
Text: as §1

[5] = target: T1, human PD-1 receptor overexpressed on …; experiment: cell-based or functional assay; remark: listed apart in the source
[6] = target: T2, AXL expressed on HNSCC tumor cells …; experiment: cell-based or functional assay; remark: listed apart in the source
[7] = target: T4, human PD-1 recombinant protein …; experiment: ELISA: biotinylated human PD-1 on streptavidin plate, dilutions of secreted construct, anti-human-Fc-HRP
Protocol: (§2) The plates were then blocked, and incubated with serial dilutions of the antibodies. Next, anti-human-FC-HRP (Jackson laboratories) was added to the plates and a reaction was developed with TMB substrates. Once color developed H2SO4 was used to end the reaction. Plates were washed with PBST (PBS containing 0.05% Tween-20) between the steps. Each of the mentioned steps was carried out for 1 hour at room temperature. The plates were then read on a spectrophotometer at 450 nm.

[8] = target: T3, human Axl recombinant protein …; experiment: ELISA: recombinant human AXL on the plate, purified antibody 0 to 50 nM, anti-human-Fc-HRP
Protocol: as §2, §1

[9] = target: T3, human Axl recombinant protein …; experiment: ELISA: human AXL recombinant protein on the plate, dilutions of secreted construct, anti-human-Fc-HRP
Protocol: as §2

[10] = target: T4, human PD-1 recombinant protein …; experiment: ELISA: biotinylated recombinant human PD-1 on streptavidin plate, purified antibody 0 to 10 nM, anti-human-Fc-HRP
Protocol: as §2, §1

T4 sequence (Q15116 25-167 limits assumed): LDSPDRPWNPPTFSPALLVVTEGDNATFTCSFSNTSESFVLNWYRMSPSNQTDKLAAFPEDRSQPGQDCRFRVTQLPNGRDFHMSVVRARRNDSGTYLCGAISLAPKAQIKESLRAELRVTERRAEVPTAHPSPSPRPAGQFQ
T1 sequence (Q15116 25-288): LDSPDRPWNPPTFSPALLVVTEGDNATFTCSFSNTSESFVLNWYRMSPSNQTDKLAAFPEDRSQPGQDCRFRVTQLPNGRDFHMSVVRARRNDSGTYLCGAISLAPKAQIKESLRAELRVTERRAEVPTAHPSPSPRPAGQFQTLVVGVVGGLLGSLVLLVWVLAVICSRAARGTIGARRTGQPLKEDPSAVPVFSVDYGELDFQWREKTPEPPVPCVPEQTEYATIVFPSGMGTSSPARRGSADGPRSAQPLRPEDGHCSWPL

B1: Bi-3 bi-specific construct PD1-Fc-AXL (anti PD1 scFv-Fc-anti AXL scFv) (bispecific antibody)
chain: EIVLTQSPATLSLSPGERATLSCRASQSVSSYLAWYQQKPGQAPRLLIYDASNRATGIPARFSGSGSGTDFTLTISSLEPEDFAVYYCQQSSNWPRTFGQGTKVEIKGGGGSGGGGSGGGGSGGGGSQVQLVESGGGVVQPGRSLRLDCKASGITFSNSGMHWVRQAPGKGLEWVAVIWYDGSKRYYADSVKGRFTISRDNSKNTLFLQMNSLRAEDTAVYYCATNDDYWGQGTLVTVSSGGGGSGGGGSGGGGSGGGGSRSVECPPCPAPPVAGPSVFLFPPKPKDTLMISRTPEVTCVVVDVSHEDPEVKFNWYVDGVEVHNAKTKPREEQYNSTYRVVSVLTVLHQDWLNGKEYKCKVSNKGLPSSIEKTISKAKGQPREPQVYTLPPSREEMTKNQVSLTCLVKGFYPSDIAVEWESNGQPENNYKTTPPVLDSDGSFFLYSKLTVDKSRWQQGNVFSCSVMHEGLHNHYTQKSLSLSPGKGGGGSGGGGSGGGGSGGGGSDIQMTQSPSSLSASVGDRVTITCRASQDVSTAVAWYQQKPGKAPKLLIYSASFLYSGVPSRFSGSGSGTDFTLTISSLQPEDFATYYCQQSYTTPPTFGQGTKVEIKGGGGSGGGGSGGGGSGGGGSEVQLVESGGGLVQPGGSLRLSCAASGFSLSGSWIHWVRQAPGKGLEWVGWINPYRGYAYYADSVKGRFTISADTSKNTAYLQMNSLRAEDTAVYYCAREYSGWGGSSVGYAMDYWGQGTLVHHHHHH
notes: Anti-PD-1 scFv at the N-terminus and anti-AXL scFv at the C-terminus of an engineered human IgG1 Fc, C-terminal His tag; also called BsAbI-AXL/PD-1; BsAb-AXL/PD1 (Bi-3)
- %Gated 'Doublets & Focused' (image stream, Area BF against Aspect Ratio BF), FaDu-plx GFP cells mixed with DiD-stained Bw-PD-1 cells; same figure: No treatment 690 / 7.6, Combo 442 / 4.9 [1]: 17.8 %Gated
- %Gated 'Doublets & Focused' (image stream, Area BF against Aspect Ratio BF), FaDu-plx GFP cells mixed with DiD-stained Bw-PD-1 cells; same figure: No treatment 690 / 7.6, Combo 442 / 4.9 [2]: 17.8 %Gated
- Kd [3]: 60 nM
- koff [3]: 0.00247 s⁻¹
- kon [3]: 41100 M⁻¹ s⁻¹
- Kd [4]: 5.82 nM
- koff [4]: 0.000743 s⁻¹
- kon [4]: 128000 M⁻¹ s⁻¹
- FaDu GFP / Bw-PD-1 mCherry cell doublets by flow cytometry, against the combination of mono Abs and no treatment [5]: 2.5 fold
- FaDu GFP / Bw-PD-1 mCherry cell doublets by flow cytometry, against the combination of mono Abs and no treatment [6]: 2.5 fold

B2: Bi-1 bi-specific construct PD1-AXL-Fc (anti PD1 scFv-anti AXL scFv-Fc) (bispecific antibody)
chain: EIVLTQSPATLSLSPGERATLSCRASQSVSSYLAWYQQKPGQAPRLLIYDASNRATGIPARFSGSGSGTDFTLTISSLEPEDFAVYYCQQSSNWPRTFGQGTKVEIKGGGGSGGGGSGGGGSGGGGSQVQLVESGGGVVQPGRSLRLDCKASGITFSNSGMHWVRQAPGKGLEWVAVIWYDGSKRYYADSVKGRFTISRDNSKNTLFLQMNSLRAEDTAVYYCATNDDYWGQGTLVTVSSGGGGSGGGGSGGGGSGGGGSDIQMTQSPSSLSASVGDRVTITCRASQDVSTAVAWYQQKPGKAPKLLIYSASFLYSGVPSRFSGSGSGTDFTLTISSLQPEDFATYYCQQSYTTPPTFGQGTKVEIKGGGGSGGGGSGGGGSGGGGSEVQLVESGGGLVQPGGSLRLSCAASGFSLSGSWIHWVRQAPGKGLEWVGWINPYRGYAYYADSVKGRFTISADTSKNTAYLQMNSLRAEDTAVYYCAREYSGWGGSSVGYAMDYWGQGTLVGGGGSGGGGSGGGGSGGGGSRSVECPPCPAPPVAGPSVFLFPPKPKDTLMISRTPEVTCVVVDVSHEDPEVKFNWYVDGVEVHNAKTKPREEQYNSTYRVVSVLTVLHQDWLNGKEYKCKVSNKGLPSSIEKTISKAKGQPREPQVYTLPPSREEMTKNQVSLTCLVKGFYPSDIAVEWESNGQPENNYKTTPPVLDSDGSFFLYSKLTVDKSRWQQGNVFSCSVMHEGLHNHYTQKSLSLSPGKHHHHHH
notes: Tandem anti-PD-1 scFv (Nivolumab-derived) and anti-AXL scFv (YW327.6S2-derived), engineered human IgG1 Fc (pFUSE-hIgG1e3-Fc2), C-terminal His tag; also called BsAbI-AXL/PD-1; BsAb-AXL/PD1
- binding result [7]: binds
- EC50 (read off the curve) [8]: ~5 nM

B3: mono-specific anti-PD-1 scFv-Fc PD-1-2 (from Nivolumab) (Fc fusion)
chain: EIVLTQSPATLSLSPGERATLSCRASQSVSSYLAWYQQKPGQAPRLLIYDASNRATGIPARFSGSGSGTDFTLTISSLEPEDFAVYYCQQSSNWPRTFGQGTKVEIKGGGGSGGGGSGGGGSGGGGSQVQLVESGGGVVQPGRSLRLDCKASGITFSNSGMHWVRQAPGKGLEWVAVIWYDGSKRYYADSVKGRFTISRDNSKNTLFLQMNSLRAEDTAVYYCATNDDYWGQGTLVTVSSGGGGSGGGGSGGGGSGGGGS
notes: the tie is by this chain of statements; also called mono-PD-1; mono PD-1; not shown: engineered human IgG1 Fc (hinge, CH2, CH3) of plasmid pFUSE-hIgG1e3-Fc2; C-terminal His tag
- binding result [8]: no binding (tested: 50 nM)

B4: Bi-2 bi-specific construct AXL-PD1-Fc (anti-AXL scFv-anti PD1 scFv-Fc) (bispecific antibody)
chain: DIQMTQSPSSLSASVGDRVTITCRASQDVSTAVAWYQQKPGKAPKLLIYSASFLYSGVPSRFSGSGSGTDFTLTISSLQPEDFATYYCQQSYTTPPTFGQGTKVEIKGGGGSGGGGSGGGGSGGGGSEVQLVESGGGLVQPGGSLRLSCAASGFSLSGSWIHWVRQAPGKGLEWVGWINPYRGYAYYADSVKGRFTISADTSKNTAYLQMNSLRAEDTAVYYCAREYSGWGGSSVGYAMDYWGQGTLVGGGGSGGGGSGGGGSGGGGSEIVLTQSPATLSLSPGERATLSCRASQSVSSYLAWYQQKPGQAPRLLIYDASNRATGIPARFSGSGSGTDFTLTISSLEPEDFAVYYCQQSSNWPRTFGQGTKVEIKGGGGSGGGGSGGGGSGGGGSQVQLVESGGGVVQPGRSLRLDCKASGITFSNSGMHWVRQAPGKGLEWVAVIWYDGSKRYYADSVKGRFTISRDNSKNTLFLQMNSLRAEDTAVYYCATNDDYWGQGTLVTVSSGGGGSGGGGSGGGGSGGGGSRSVECPPCPAPPVAGPSVFLFPPKPKDTLMISRTPEVTCVVVDVSHEDPEVKFNWYVDGVEVHNAKTKPREEQYNSTYRVVSVLTVLHQDWLNGKEYKCKVSNKGLPSSIEKTISKAKGQPREPQVYTLPPSREEMTKNQVSLTCLVKGFYPSDIAVEWESNGQPENNYKTTPPVLDSDGSFFLYSKLTVDKSRWQQGNVFSCSVMHEGLHNHYTQKSLSLSPGKHHHHHH
notes: Tandem anti-AXL scFv and anti-PD-1 scFv, engineered human IgG1 Fc, C-terminal His tag; also called BsAbI-AXL/PD-1
- binding result [7]: binds
- binding result [9]: binds

B5: mono-specific anti-AXL scFv-Fc AXL2 (from YW327.6S2) (Fc fusion)
chain: DIQMTQSPSSLSASVGDRVTITCRASQDVSTAVAWYQQKPGKAPKLLIYSASFLYSGVPSRFSGSGSGTDFTLTISSLQPEDFATYYCQQSYTTPPTFGQGTKVEIKGGGGSGGGGSGGGGSGGGGSEVQLVESGGGLVQPGGSLRLSCAASGFSLSGSWIHWVRQAPGKGLEWVGWINPYRGYAYYADSVKGRFTISADTSKNTAYLQMNSLRAEDTAVYYCAREYSGWGGSSVGYAMDYWGQGTLVGGGGSGGGGSGGGGSGGGGS
notes: also called mono-AXL; AXL2 scFv-Fc; not shown: engineered human IgG1 Fc (hinge, CH2, CH3) of plasmid pFUSE-hIgG1e3-Fc2; C-terminal His tag
- Kd [3]: 20.9 nM
- koff [3]: 0.00102 s⁻¹
- kon [3]: 49000 M⁻¹ s⁻¹
- binding result [10]: no binding (tested: 10 nM)
